What is called IC50 is the point on the concentration scale where inhibition reaches its midpoint. Usually Km stands for the concentration of substrate that gives half-maximal velocity. The kcat is the number of substrate molecules converted per active site and unit of time at saturation. By kcat/Km is commonly meant the second-order rate constant that governs catalysis at low substrate concentration.

One data set has as its target T1, TgCTPS (CTP synthase) (Toxoplasma gondii, UniProt B9Q379).
T1 sequence (B9Q379 1-652): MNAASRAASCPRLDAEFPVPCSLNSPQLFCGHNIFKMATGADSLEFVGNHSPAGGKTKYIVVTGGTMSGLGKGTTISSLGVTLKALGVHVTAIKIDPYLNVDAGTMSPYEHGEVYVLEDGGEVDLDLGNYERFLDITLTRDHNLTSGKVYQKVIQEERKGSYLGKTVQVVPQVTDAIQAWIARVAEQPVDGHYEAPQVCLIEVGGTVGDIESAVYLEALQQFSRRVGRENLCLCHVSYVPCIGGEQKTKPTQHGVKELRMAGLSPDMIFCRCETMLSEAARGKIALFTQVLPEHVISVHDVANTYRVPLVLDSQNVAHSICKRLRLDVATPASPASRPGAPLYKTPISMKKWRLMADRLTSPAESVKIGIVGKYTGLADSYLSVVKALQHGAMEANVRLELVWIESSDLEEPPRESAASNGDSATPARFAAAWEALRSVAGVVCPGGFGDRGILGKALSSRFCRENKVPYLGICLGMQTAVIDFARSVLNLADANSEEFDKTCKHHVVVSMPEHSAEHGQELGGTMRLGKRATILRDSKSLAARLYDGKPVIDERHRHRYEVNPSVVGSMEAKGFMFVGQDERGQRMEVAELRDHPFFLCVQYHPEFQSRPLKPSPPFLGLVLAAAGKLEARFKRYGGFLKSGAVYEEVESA
In words: pyruvate kinase/lactate dehydrogenase-coupled assay with recombinant enzyme. It counts as biochemical.

Substrate in data set [1]: NC(=O)CC[C@H](N)C(=O)O
In words: steady-state kinetics, coupled enzyme assay (Km). Particulars: Mg2+ negative cooperativity in the binding of L-glutamine to the active site; 37.0 °C. It is filed as biochemical, Toxoplasma gondii.

Substrate in data set [2]: Nc1ncnc2c1ncn2[C@@H]1O[C@H](COP(=O)(O)OP(=O)(O)OP(=O)(O)O)[C@@H](O)[C@H]1O
In words: steady-state kinetics, coupled enzyme assay (Km). The note with it: Mg2+; 37.0 °C. It counts as biochemical, Toxoplasma gondii.

Substrate in the data set “purified protein”: O=c1ccn([C@@H]2O[C@H](COP(=O)(O)OP(=O)(O)OP(=O)(O)O)[C@@H](O)[C@H]2O)c(=O)[nH]1
In words: purified protein. Particulars: Mg2+. It counts as biochemical, Toxoplasma gondii.

As for `[N-]=[N+]=CC(=O)CC[C@H](N)C(=O)O` [DON, 6-diazo-5-oxo-L-norleucine], the IC50 at TgCTPS (CTP synthase) is ~40 nM.

B1: TgCTPS (CTP synthase) (Toxoplasma gondii) (protein)
chain: MNAASRAASCPRLDAEFPVPCSLNSPQLFCGHNIFKMATGADSLEFVGNHSPAGGKTKYIVVTGGTMSGLGKGTTISSLGVTLKALGVHVTAIKIDPYLNVDAGTMSPYEHGEVYVLEDGGEVDLDLGNYERFLDITLTRDHNLTSGKVYQKVIQEERKGSYLGKTVQVVPQVTDAIQAWIARVAEQPVDGHYEAPQVCLIEVGGTVGDIESAVYLEALQQFSRRVGRENLCLCHVSYVPCIGGEQKTKPTQHGVKELRMAGLSPDMIFCRCETMLSEAARGKIALFTQVLPEHVISVHDVANTYRVPLVLDSQNVAHSICKRLRLDVATPASPASRPGAPLYKTPISMKKWRLMADRLTSPAESVKIGIVGKYTGLADSYLSVVKALQHGAMEANVRLELVWIESSDLEEPPRESAASNGDSATPARFAAAWEALRSVAGVVCPGGFGDRGILGKALSSRFCRENKVPYLGICLGMQTAVIDFARSVLNLADANSEEFDKTCKHHVVVSMPEHSAEHGQELGGTMRLGKRATILRDSKSLAARLYDGKPVIDERHRHRYEVNPSVVGSMEAKGFMFVGQDERGQRMEVAELRDHPFFLCVQYHPEFQSRPLKPSPPFLGLVLAAAGKLEARFKRYGGFLKSGAVYEEVESA
Regarding B1, in data set [1], the Km amounted to 260 ± 40 µM, the kcat was found to be 29.6 s⁻¹ and the specificity constant (kcat/Km) worked out at 114000 M⁻¹ s⁻¹. Besides, in data set [2], the Km turned out to be 540 ± 50 µM, the kcat stood at 36 s⁻¹ and the kcat/Km came out at 66700 M⁻¹ s⁻¹. Besides, the K0.5 in the data set “purified protein” was determined as 0.47 ± 0.03 mM.
